Measurements from patent US20230235013A1 (MABSOLVE, published 2023).

B1: anti-CD20 human IgG1 L234A/L235A/G236R (antibody)
heavy: not shown
light: QIVLSQSPAILSASPGEKVTMTCRASSSVSYIHWFQQKPGSSPKPWIYATSNLASGVPVRFSGSGSGTSYSLTISRVEAEDAATYYCQQWTSNPPTFGGGTKLEIKRTVAAPSVFIFPPSDEQLKSGTASVVCLLNNFYPREAKVQWKVDNALQSGNSQESVTEQDSKDSTYSLSSTLTLSKADYEKHKVYACEVTHQGLSSPVTKSFNRGEC
notes: also called 1-2; 2-2; copies: 2 + 2
B2: anti-CD20 human IgG1 L234A/G236R (antibody)
heavy: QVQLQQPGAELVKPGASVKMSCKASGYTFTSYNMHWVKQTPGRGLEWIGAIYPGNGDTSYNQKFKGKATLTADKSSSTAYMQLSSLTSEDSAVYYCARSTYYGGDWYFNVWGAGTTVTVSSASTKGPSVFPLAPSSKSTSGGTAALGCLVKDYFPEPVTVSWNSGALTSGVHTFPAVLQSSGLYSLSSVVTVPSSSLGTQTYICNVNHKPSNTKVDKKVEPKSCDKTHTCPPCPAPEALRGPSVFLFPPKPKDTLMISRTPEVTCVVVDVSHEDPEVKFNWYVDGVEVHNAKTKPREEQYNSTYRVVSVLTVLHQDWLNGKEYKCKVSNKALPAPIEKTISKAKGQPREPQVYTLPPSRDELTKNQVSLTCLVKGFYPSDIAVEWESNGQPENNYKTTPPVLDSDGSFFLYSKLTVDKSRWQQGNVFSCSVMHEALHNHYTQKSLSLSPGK
light: QIVLSQSPAILSASPGEKVTMTCRASSSVSYIHWFQQKPGSSPKPWIYATSNLASGVPVRFSGSGSGTSYSLTISRVEAEDAATYYCQQWTSNPPTFGGGTKLEIKRTVAAPSVFIFPPSDEQLKSGTASVVCLLNNFYPREAKVQWKVDNALQSGNSQESVTEQDSKDSTYSLSSTLTLSKADYEKHKVYACEVTHQGLSSPVTKSFNRGEC
notes: also called 1-9; copies: 2 + 2
B3: anti-CD20 human IgG1 L234A/L235D/G236R (antibody)
heavy: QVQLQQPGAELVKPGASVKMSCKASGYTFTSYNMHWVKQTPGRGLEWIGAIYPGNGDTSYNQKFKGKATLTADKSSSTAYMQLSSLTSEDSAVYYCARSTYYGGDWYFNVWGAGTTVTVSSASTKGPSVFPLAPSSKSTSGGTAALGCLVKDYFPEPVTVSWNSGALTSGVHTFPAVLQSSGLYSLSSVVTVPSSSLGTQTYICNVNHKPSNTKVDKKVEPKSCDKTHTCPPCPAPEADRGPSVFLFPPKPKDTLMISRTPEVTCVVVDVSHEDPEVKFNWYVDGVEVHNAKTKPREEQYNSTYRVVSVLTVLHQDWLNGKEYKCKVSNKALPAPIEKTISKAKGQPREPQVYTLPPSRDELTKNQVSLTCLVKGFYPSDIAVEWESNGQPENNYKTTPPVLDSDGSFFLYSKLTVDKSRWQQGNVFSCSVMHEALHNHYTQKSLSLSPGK
light: QIVLSQSPAILSASPGEKVTMTCRASSSVSYIHWFQQKPGSSPKPWIYATSNLASGVPVRFSGSGSGTSYSLTISRVEAEDAATYYCQQWTSNPPTFGGGTKLEIKRTVAAPSVFIFPPSDEQLKSGTASVVCLLNNFYPREAKVQWKVDNALQSGNSQESVTEQDSKDSTYSLSSTLTLSKADYEKHKVYACEVTHQGLSSPVTKSFNRGEC
notes: also called 1-3; copies: 2 + 2
B4: anti-CD20 human IgG1 L234A/L235E/G236R (antibody)
heavy: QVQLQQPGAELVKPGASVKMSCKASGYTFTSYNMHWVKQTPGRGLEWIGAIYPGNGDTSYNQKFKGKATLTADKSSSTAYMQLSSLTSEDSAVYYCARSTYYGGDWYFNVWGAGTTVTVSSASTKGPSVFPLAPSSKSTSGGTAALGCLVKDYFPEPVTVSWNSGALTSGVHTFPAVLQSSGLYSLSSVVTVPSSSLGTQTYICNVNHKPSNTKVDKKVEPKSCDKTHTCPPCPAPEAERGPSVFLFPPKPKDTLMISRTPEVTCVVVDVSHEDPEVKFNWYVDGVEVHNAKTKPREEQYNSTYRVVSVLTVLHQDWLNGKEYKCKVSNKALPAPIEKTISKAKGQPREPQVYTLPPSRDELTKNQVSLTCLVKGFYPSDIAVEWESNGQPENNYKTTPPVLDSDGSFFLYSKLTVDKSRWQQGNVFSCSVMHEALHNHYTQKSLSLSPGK
light: QIVLSQSPAILSASPGEKVTMTCRASSSVSYIHWFQQKPGSSPKPWIYATSNLASGVPVRFSGSGSGTSYSLTISRVEAEDAATYYCQQWTSNPPTFGGGTKLEIKRTVAAPSVFIFPPSDEQLKSGTASVVCLLNNFYPREAKVQWKVDNALQSGNSQESVTEQDSKDSTYSLSSTLTLSKADYEKHKVYACEVTHQGLSSPVTKSFNRGEC
notes: also called 1-4; copies: 2 + 2
B5: anti-CD20 human IgG1 L234A/L235G/G236R (antibody)
heavy: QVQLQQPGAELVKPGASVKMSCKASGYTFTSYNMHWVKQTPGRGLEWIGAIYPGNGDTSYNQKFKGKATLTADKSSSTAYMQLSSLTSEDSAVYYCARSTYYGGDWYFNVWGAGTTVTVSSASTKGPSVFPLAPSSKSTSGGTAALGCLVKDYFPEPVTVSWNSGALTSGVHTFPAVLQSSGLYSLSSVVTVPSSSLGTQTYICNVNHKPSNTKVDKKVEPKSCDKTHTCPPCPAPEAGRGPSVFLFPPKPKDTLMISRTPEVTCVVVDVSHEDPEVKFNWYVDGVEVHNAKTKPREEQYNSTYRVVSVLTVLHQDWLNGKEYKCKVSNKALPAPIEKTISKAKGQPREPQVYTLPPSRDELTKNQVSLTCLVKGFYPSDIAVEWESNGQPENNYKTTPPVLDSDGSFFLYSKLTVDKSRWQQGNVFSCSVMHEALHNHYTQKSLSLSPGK
light: QIVLSQSPAILSASPGEKVTMTCRASSSVSYIHWFQQKPGSSPKPWIYATSNLASGVPVRFSGSGSGTSYSLTISRVEAEDAATYYCQQWTSNPPTFGGGTKLEIKRTVAAPSVFIFPPSDEQLKSGTASVVCLLNNFYPREAKVQWKVDNALQSGNSQESVTEQDSKDSTYSLSSTLTLSKADYEKHKVYACEVTHQGLSSPVTKSFNRGEC
notes: also called 1-5; copies: 2 + 2
B6: anti-CD20 human IgG1 L234A/L235H/G236R (antibody)
heavy: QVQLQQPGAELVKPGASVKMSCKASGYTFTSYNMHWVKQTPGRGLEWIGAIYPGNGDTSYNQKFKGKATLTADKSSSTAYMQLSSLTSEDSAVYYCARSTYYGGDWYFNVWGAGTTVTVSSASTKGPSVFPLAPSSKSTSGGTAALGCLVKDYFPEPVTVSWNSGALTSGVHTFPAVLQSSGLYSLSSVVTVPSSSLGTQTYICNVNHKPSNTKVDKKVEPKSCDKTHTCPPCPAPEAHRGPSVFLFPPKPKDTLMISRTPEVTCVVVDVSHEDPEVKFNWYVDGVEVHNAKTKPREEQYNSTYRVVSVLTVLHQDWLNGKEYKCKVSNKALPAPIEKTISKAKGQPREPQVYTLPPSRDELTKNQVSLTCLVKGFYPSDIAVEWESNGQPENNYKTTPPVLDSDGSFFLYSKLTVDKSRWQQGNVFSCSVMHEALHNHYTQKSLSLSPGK
light: QIVLSQSPAILSASPGEKVTMTCRASSSVSYIHWFQQKPGSSPKPWIYATSNLASGVPVRFSGSGSGTSYSLTISRVEAEDAATYYCQQWTSNPPTFGGGTKLEIKRTVAAPSVFIFPPSDEQLKSGTASVVCLLNNFYPREAKVQWKVDNALQSGNSQESVTEQDSKDSTYSLSSTLTLSKADYEKHKVYACEVTHQGLSSPVTKSFNRGEC
notes: also called 1-6; copies: 2 + 2
B7: anti-CD20 human IgG1 L234A/L235I/G236R (antibody)
heavy: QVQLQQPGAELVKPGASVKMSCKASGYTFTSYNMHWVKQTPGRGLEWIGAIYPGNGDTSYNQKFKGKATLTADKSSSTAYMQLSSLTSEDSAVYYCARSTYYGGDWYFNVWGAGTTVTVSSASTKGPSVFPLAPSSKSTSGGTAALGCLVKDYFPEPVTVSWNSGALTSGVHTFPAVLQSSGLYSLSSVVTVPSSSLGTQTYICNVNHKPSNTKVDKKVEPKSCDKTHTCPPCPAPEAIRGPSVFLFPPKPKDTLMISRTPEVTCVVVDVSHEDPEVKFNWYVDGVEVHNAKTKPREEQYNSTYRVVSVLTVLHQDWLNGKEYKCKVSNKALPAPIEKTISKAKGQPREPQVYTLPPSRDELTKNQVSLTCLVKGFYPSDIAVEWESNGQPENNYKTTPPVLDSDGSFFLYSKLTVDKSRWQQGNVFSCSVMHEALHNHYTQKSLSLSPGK
light: QIVLSQSPAILSASPGEKVTMTCRASSSVSYIHWFQQKPGSSPKPWIYATSNLASGVPVRFSGSGSGTSYSLTISRVEAEDAATYYCQQWTSNPPTFGGGTKLEIKRTVAAPSVFIFPPSDEQLKSGTASVVCLLNNFYPREAKVQWKVDNALQSGNSQESVTEQDSKDSTYSLSSTLTLSKADYEKHKVYACEVTHQGLSSPVTKSFNRGEC
notes: also called 1-7; copies: 2 + 2
B8: anti-CD20 human IgG1 L234A/L235K/G236R (antibody)
heavy: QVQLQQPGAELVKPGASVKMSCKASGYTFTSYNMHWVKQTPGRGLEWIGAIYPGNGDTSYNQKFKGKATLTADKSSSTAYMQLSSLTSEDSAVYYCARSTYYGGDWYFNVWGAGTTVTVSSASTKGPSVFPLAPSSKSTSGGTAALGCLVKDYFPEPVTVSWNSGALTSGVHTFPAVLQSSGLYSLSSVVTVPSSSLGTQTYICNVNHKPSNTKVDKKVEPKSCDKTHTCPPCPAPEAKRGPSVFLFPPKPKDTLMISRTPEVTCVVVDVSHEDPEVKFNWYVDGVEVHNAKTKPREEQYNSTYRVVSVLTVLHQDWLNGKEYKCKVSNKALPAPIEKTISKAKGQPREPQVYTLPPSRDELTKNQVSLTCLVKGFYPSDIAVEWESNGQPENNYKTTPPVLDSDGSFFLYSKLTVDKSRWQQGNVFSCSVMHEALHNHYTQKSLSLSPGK
light: QIVLSQSPAILSASPGEKVTMTCRASSSVSYIHWFQQKPGSSPKPWIYATSNLASGVPVRFSGSGSGTSYSLTISRVEAEDAATYYCQQWTSNPPTFGGGTKLEIKRTVAAPSVFIFPPSDEQLKSGTASVVCLLNNFYPREAKVQWKVDNALQSGNSQESVTEQDSKDSTYSLSSTLTLSKADYEKHKVYACEVTHQGLSSPVTKSFNRGEC
notes: also called 1-8; copies: 2 + 2
B9: anti-CD20 human IgG1 L234A/L235M/G236R (antibody)
heavy: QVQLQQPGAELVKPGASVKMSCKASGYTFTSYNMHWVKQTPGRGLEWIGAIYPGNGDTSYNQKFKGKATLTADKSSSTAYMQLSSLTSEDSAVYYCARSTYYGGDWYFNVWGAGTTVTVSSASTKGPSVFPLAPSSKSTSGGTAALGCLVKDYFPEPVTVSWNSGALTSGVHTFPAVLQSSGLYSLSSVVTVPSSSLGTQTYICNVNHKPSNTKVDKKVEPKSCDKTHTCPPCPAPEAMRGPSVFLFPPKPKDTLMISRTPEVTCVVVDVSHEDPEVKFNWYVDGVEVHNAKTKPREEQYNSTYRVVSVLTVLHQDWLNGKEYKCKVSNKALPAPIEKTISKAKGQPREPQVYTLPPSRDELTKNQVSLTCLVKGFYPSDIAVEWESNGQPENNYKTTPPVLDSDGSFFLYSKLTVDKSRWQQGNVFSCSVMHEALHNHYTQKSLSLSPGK
light: QIVLSQSPAILSASPGEKVTMTCRASSSVSYIHWFQQKPGSSPKPWIYATSNLASGVPVRFSGSGSGTSYSLTISRVEAEDAATYYCQQWTSNPPTFGGGTKLEIKRTVAAPSVFIFPPSDEQLKSGTASVVCLLNNFYPREAKVQWKVDNALQSGNSQESVTEQDSKDSTYSLSSTLTLSKADYEKHKVYACEVTHQGLSSPVTKSFNRGEC
notes: also called 1-10; copies: 2 + 2
B10: anti-CD20 human IgG1 L234A/L235Q/G236R (antibody)
heavy: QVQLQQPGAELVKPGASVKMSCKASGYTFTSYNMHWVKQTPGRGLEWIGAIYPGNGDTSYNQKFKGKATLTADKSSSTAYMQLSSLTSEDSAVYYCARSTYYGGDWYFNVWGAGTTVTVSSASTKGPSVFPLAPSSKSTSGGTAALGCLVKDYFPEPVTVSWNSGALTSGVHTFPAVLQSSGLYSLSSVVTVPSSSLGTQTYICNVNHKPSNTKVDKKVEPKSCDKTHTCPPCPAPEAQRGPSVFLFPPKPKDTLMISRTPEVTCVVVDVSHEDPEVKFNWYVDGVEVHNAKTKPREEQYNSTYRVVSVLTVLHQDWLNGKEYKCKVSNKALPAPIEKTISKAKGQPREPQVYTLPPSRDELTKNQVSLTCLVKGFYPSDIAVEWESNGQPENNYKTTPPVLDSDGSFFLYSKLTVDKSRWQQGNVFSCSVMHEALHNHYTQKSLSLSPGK
light: QIVLSQSPAILSASPGEKVTMTCRASSSVSYIHWFQQKPGSSPKPWIYATSNLASGVPVRFSGSGSGTSYSLTISRVEAEDAATYYCQQWTSNPPTFGGGTKLEIKRTVAAPSVFIFPPSDEQLKSGTASVVCLLNNFYPREAKVQWKVDNALQSGNSQESVTEQDSKDSTYSLSSTLTLSKADYEKHKVYACEVTHQGLSSPVTKSFNRGEC
notes: also called 1-12; copies: 2 + 2
B11: anti-CD20 human IgG1 L234A/L235R/G236R (antibody)
heavy: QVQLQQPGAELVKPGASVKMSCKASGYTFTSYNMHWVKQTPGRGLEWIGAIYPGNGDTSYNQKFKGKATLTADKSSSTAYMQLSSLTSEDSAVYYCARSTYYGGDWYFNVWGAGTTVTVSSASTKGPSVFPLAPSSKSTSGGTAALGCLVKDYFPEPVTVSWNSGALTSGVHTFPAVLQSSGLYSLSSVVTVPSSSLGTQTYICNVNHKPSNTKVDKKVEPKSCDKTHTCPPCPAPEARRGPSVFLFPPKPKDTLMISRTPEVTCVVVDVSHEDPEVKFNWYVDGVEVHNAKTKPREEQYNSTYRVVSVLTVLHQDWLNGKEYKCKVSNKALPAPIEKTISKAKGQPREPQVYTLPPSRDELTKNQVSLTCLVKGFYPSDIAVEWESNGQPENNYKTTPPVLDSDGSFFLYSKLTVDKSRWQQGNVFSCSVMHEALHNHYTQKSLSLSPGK
light: QIVLSQSPAILSASPGEKVTMTCRASSSVSYIHWFQQKPGSSPKPWIYATSNLASGVPVRFSGSGSGTSYSLTISRVEAEDAATYYCQQWTSNPPTFGGGTKLEIKRTVAAPSVFIFPPSDEQLKSGTASVVCLLNNFYPREAKVQWKVDNALQSGNSQESVTEQDSKDSTYSLSSTLTLSKADYEKHKVYACEVTHQGLSSPVTKSFNRGEC
notes: also called 1-13; copies: 2 + 2
B12: anti-CD20 human IgG1 L234A/L235V/G236R (antibody)
heavy: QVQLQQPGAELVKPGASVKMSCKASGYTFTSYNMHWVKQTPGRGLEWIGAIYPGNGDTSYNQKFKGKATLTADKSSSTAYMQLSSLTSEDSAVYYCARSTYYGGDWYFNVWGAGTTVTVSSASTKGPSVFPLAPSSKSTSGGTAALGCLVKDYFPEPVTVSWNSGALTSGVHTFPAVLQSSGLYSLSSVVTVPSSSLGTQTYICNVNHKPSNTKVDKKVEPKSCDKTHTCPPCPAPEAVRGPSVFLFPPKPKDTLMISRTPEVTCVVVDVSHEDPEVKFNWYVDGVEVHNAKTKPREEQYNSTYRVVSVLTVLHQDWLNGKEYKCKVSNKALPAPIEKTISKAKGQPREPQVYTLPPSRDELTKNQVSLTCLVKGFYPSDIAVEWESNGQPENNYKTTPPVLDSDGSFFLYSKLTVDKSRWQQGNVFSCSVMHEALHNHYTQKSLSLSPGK
light: QIVLSQSPAILSASPGEKVTMTCRASSSVSYIHWFQQKPGSSPKPWIYATSNLASGVPVRFSGSGSGTSYSLTISRVEAEDAATYYCQQWTSNPPTFGGGTKLEIKRTVAAPSVFIFPPSDEQLKSGTASVVCLLNNFYPREAKVQWKVDNALQSGNSQESVTEQDSKDSTYSLSSTLTLSKADYEKHKVYACEVTHQGLSSPVTKSFNRGEC
notes: also called 1-16; copies: 2 + 2
B13: anti-CD20 human IgG1 L234D/G236R (antibody)
heavy: not shown
light: QIVLSQSPAILSASPGEKVTMTCRASSSVSYIHWFQQKPGSSPKPWIYATSNLASGVPVRFSGSGSGTSYSLTISRVEAEDAATYYCQQWTSNPPTFGGGTKLEIKRTVAAPSVFIFPPSDEQLKSGTASVVCLLNNFYPREAKVQWKVDNALQSGNSQESVTEQDSKDSTYSLSSTLTLSKADYEKHKVYACEVTHQGLSSPVTKSFNRGEC
notes: also called 1-24; 2-8; copies: 2 + 2
B14: anti-CD20 human IgG1 L234D/L235A/G236R (antibody)
heavy: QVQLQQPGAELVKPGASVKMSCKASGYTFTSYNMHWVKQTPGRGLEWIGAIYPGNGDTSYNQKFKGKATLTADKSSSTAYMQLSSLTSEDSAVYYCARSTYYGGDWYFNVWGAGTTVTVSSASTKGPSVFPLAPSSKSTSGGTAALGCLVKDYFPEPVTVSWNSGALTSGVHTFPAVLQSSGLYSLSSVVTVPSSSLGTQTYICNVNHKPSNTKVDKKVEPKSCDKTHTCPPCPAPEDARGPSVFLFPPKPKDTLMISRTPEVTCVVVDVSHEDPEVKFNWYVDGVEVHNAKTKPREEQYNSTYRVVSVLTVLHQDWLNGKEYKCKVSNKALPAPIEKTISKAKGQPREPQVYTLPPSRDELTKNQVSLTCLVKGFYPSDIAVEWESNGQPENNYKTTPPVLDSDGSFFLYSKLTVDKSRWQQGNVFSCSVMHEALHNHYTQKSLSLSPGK
light: QIVLSQSPAILSASPGEKVTMTCRASSSVSYIHWFQQKPGSSPKPWIYATSNLASGVPVRFSGSGSGTSYSLTISRVEAEDAATYYCQQWTSNPPTFGGGTKLEIKRTVAAPSVFIFPPSDEQLKSGTASVVCLLNNFYPREAKVQWKVDNALQSGNSQESVTEQDSKDSTYSLSSTLTLSKADYEKHKVYACEVTHQGLSSPVTKSFNRGEC
notes: also called 1-17; copies: 2 + 2
B15: anti-CD20 human IgG1 L234D/L235D/G236R (antibody)
heavy: QVQLQQPGAELVKPGASVKMSCKASGYTFTSYNMHWVKQTPGRGLEWIGAIYPGNGDTSYNQKFKGKATLTADKSSSTAYMQLSSLTSEDSAVYYCARSTYYGGDWYFNVWGAGTTVTVSSASTKGPSVFPLAPSSKSTSGGTAALGCLVKDYFPEPVTVSWNSGALTSGVHTFPAVLQSSGLYSLSSVVTVPSSSLGTQTYICNVNHKPSNTKVDKKVEPKSCDKTHTCPPCPAPEDDRGPSVFLFPPKPKDTLMISRTPEVTCVVVDVSHEDPEVKFNWYVDGVEVHNAKTKPREEQYNSTYRVVSVLTVLHQDWLNGKEYKCKVSNKALPAPIEKTISKAKGQPREPQVYTLPPSRDELTKNQVSLTCLVKGFYPSDIAVEWESNGQPENNYKTTPPVLDSDGSFFLYSKLTVDKSRWQQGNVFSCSVMHEALHNHYTQKSLSLSPGK
light: QIVLSQSPAILSASPGEKVTMTCRASSSVSYIHWFQQKPGSSPKPWIYATSNLASGVPVRFSGSGSGTSYSLTISRVEAEDAATYYCQQWTSNPPTFGGGTKLEIKRTVAAPSVFIFPPSDEQLKSGTASVVCLLNNFYPREAKVQWKVDNALQSGNSQESVTEQDSKDSTYSLSSTLTLSKADYEKHKVYACEVTHQGLSSPVTKSFNRGEC
notes: also called 1-18; copies: 2 + 2
B16: anti-CD20 human IgG1 L234D/L235E/G236R (antibody)
heavy: QVQLQQPGAELVKPGASVKMSCKASGYTFTSYNMHWVKQTPGRGLEWIGAIYPGNGDTSYNQKFKGKATLTADKSSSTAYMQLSSLTSEDSAVYYCARSTYYGGDWYFNVWGAGTTVTVSSASTKGPSVFPLAPSSKSTSGGTAALGCLVKDYFPEPVTVSWNSGALTSGVHTFPAVLQSSGLYSLSSVVTVPSSSLGTQTYICNVNHKPSNTKVDKKVEPKSCDKTHTCPPCPAPEDERGPSVFLFPPKPKDTLMISRTPEVTCVVVDVSHEDPEVKFNWYVDGVEVHNAKTKPREEQYNSTYRVVSVLTVLHQDWLNGKEYKCKVSNKALPAPIEKTISKAKGQPREPQVYTLPPSRDELTKNQVSLTCLVKGFYPSDIAVEWESNGQPENNYKTTPPVLDSDGSFFLYSKLTVDKSRWQQGNVFSCSVMHEALHNHYTQKSLSLSPGK
light: QIVLSQSPAILSASPGEKVTMTCRASSSVSYIHWFQQKPGSSPKPWIYATSNLASGVPVRFSGSGSGTSYSLTISRVEAEDAATYYCQQWTSNPPTFGGGTKLEIKRTVAAPSVFIFPPSDEQLKSGTASVVCLLNNFYPREAKVQWKVDNALQSGNSQESVTEQDSKDSTYSLSSTLTLSKADYEKHKVYACEVTHQGLSSPVTKSFNRGEC
notes: also called 1-19; copies: 2 + 2
B17: anti-CD20 human IgG1 L234D/L235G/G236R (antibody)
heavy: QVQLQQPGAELVKPGASVKMSCKASGYTFTSYNMHWVKQTPGRGLEWIGAIYPGNGDTSYNQKFKGKATLTADKSSSTAYMQLSSLTSEDSAVYYCARSTYYGGDWYFNVWGAGTTVTVSSASTKGPSVFPLAPSSKSTSGGTAALGCLVKDYFPEPVTVSWNSGALTSGVHTFPAVLQSSGLYSLSSVVTVPSSSLGTQTYICNVNHKPSNTKVDKKVEPKSCDKTHTCPPCPAPEDGRGPSVFLFPPKPKDTLMISRTPEVTCVVVDVSHEDPEVKFNWYVDGVEVHNAKTKPREEQYNSTYRVVSVLTVLHQDWLNGKEYKCKVSNKALPAPIEKTISKAKGQPREPQVYTLPPSRDELTKNQVSLTCLVKGFYPSDIAVEWESNGQPENNYKTTPPVLDSDGSFFLYSKLTVDKSRWQQGNVFSCSVMHEALHNHYTQKSLSLSPGK
light: QIVLSQSPAILSASPGEKVTMTCRASSSVSYIHWFQQKPGSSPKPWIYATSNLASGVPVRFSGSGSGTSYSLTISRVEAEDAATYYCQQWTSNPPTFGGGTKLEIKRTVAAPSVFIFPPSDEQLKSGTASVVCLLNNFYPREAKVQWKVDNALQSGNSQESVTEQDSKDSTYSLSSTLTLSKADYEKHKVYACEVTHQGLSSPVTKSFNRGEC
notes: also called 1-20; copies: 2 + 2

Each binder was assayed against T1, Histidine-tagged recombinant human FcγRI (CD64) (human, UniProt P12314 16-288) (assay: SPR, culture supernatant, captured His-FcγRI;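 further: biacore T200 SPR at 25 °C, anti-His capture, supernatants of HEK293 cells expressing IgG1 Fc variants injected 1 min, reference-subtracted response read 55 s after injection start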).
T1 construct: bought; also called Sino Biological Cat. No. 12056-H08H

In order of rising Mean binding response:
1. B2  8 RU
2. B13  11.9 RU
3. B15  22 RU
4. B16  22.1 RU
5. B6  23 RU
6. B12  25.8 RU
7. B11  26.9 RU
8. B17  27.3 RU
9. B9  27.4 RU
10. B5  27.6 RU
11. B3  28 RU
12. B7  28.4 RU
13. B14  29.6 RU
14. B1  30.7 RU
15. B4  31.7 RU
16. B8  34.2 RU
17. B10  34.3 RU
